Numbering of substitutions follows the chain as printed. Values belong to the binder of their own block, whether it stands above or below them.
Biological target: human plasma kallikrein (active form) (human), P03952
Experiment: Ki,app on full length pKal, enzyme inhibition
Settings: remark: other sources report otherwise

human plasma kallikrein (active form) (human), P03952, sequence (P03952 20-390, chain 1 of 2): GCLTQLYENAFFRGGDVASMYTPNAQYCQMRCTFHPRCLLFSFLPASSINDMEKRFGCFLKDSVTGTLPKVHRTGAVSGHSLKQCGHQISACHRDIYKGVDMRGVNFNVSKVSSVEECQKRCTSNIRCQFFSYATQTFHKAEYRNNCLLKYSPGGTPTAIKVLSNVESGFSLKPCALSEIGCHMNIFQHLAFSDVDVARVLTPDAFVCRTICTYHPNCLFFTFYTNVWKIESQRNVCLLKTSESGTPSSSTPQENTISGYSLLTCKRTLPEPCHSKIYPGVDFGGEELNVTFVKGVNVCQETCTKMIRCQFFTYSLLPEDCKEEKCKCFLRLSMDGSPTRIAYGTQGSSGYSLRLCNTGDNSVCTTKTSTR
human plasma kallikrein (active form) (human), P03952, sequence (P03952 391-638, chain 2 of 2): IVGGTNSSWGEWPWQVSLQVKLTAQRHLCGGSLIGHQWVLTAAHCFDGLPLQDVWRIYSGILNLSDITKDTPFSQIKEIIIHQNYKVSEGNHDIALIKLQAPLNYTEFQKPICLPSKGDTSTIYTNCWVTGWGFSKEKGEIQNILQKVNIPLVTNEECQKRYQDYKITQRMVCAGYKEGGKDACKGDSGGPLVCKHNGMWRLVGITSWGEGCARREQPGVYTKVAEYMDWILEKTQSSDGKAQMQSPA

Ki: 0.33 nM
B1: X115-B07 (antibody, V domains shown)
VL: EIVLTQSPGTLSLSPGERATLSCRTSQFVNSNYLAWYQQKPGQAPRLLIYGASSRATGIPDRFSGSGSGTDFTLTISRLEPEDFAVYYCQQSSRTPWTFGQGTKVEIK
VH: EVQLLESGGGLVQPGGSLRLSCAASGFTFSHYLMTWVRQAPGKGLEWVSYISPSGGHTIYADSVKGRFTISRDNSKNTLYLQMNSLRAEDTAVYYCAMVGQGIRGRSRTSYFAQWGQGTLVTVSS

Ki: 0.35 nM
B2: X115-H06 (antibody, V domains shown)
VL: B1 VL
VH: B1 VH with M98R, G100A, R104S, G105A, A113D, Q114Y

Ki: 0.25 nM
B3: X115-D05 (antibody, V domains shown)
VL: B1 VL
VH: EVQLLESGGGLVQPGGSLRLSCAASGFTFSDYMMAWVRQAPGKGLEWVSSIVPSGGHTHYADSVKGRFTISRDNSKNTLYLQMNSLRAEDTAVYYCARVARGIAARSRTSYFDYWGQGTLVTVSS

Ki: 0.34 nM
B4: X115-E09 (antibody, V domains shown)
VL: B1 VL
VH: B1 VH with M98R, G100A, R104A, G105A, Y111S, F112V, A113D

Ki: 0.16 nM
B5: X115-A03 (antibody, V domains shown)
VL: DIQMTQSPSTLSASVGDRVTITCRASQSISSWLAWYQQKPGKAPKLLIYKASTLESGVPSRFSGSGSGTEFTLTISSLQPDDFATYYCQQYNTYWTFGQGTKVEIK
VH: EVQLLESGGGLVQPGGSLRLSCAASGFTFSHYIMMWVRQAPGKGLEWVSGIYSSGGITVYADSVKGRFTISRDNSKNTLYLQMNSLRAEDTAVYYCAWRRIGVPRRDSFDMWGQGTMVTVSS

Ki: 0.18 nM
B6: X115-D01 (antibody, V domains shown)
VL: B5 VL
VH: EVQLLESGGGLVQPGGSLRLSCAASGFTFSIYSMHWVRQAPGKGLEWVSSIYPSRGMTWYADSVKGRFTISRDNSKNTLYLQMNSLRAEDTAVYYCAYRRTGIPRRDAFDIWGQGTMVTVSS

Ki: 0.6 nM
B7: X115-G04 (antibody, V domains shown)
VL: B5 VL
VH: B5 VH with W98Y, I101T, S108E, M111I

Ki: 0.089 nM
B8: X115-F02 (Fab, V domains shown)
VL: B5 VL
VH: B5 VH with W98Y, S108E, M111I

Source: patent US8816055
